Test results published in article PMC11746992 (Nature Communications, 2025).
One block for each binder: values may come before it.

Target: VP4 coated on microplates (indirect blocking ELISA) (Rotavirus A, simian strain SA11 …, UniProt A2T3T2)
Assay: ELISA

- binding result: binds
B1: m41# (engineered mouse Fc version of 41#) (antibody, V domains shown)
VH: EVQLVESGGGPVQPGGSLKLSCAASGFTFSNYEMYWVRQAPGKGLEWVSYISTSPAITYYADSVRGRFTISRDNAKSSLYLHMNSLRAEDTAVYYCATISHQQFSSGWNAWFDPWGQGTLVTVSG
VL: NFMLTQPHSVSESPGKTVTISCTGSSGSIASNYVQWYRQRPGSAPTTVIYENYQRPSGVPARFSGSIDRSSNSASLTISGLQTDDEADYYCQSYDNNNLWVFGGGTKLTVL

- binding result: binds
B2: C7H13 (chimeric antibody: variable regions of 7H13 in a human antibody framework) (antibody, V domains shown)
VH: QVQLKESGPGLVAPSQSLSITCTVSGFSLSRYSVHWVRQPPGKGLEWLGMIWNIGSTDYNSALKSRLSISKDNSQSQVFLKLNSLQTDDAAIYYCARNSGFDLFDFWGQGTTLTVS
VL: DIVMTQSHKFMSTSVGDRVSITCKASQDVTSAVAWYQQKPGQSPKLLISSASYRYTGVPDRFSGSGSGTDFTFTISSVQAEDLAVYYCQQHYSTPPTFGAGTKLELK
